This is an account of results in PMC10641069, “Intra- and inter-molecular regulation by intrinsically-disordered regions governs PUF protein RNA binding” (Nature Communications, 2023).

The target in series [1] is FBF-2 RBD (Caenorhabditis elegans) (UniProt Q09312). The experiment in a line: ITC. To be noted: cited from earlier work.
A further series relates to C. elegans. As to conditions: cited from earlier work; for sterile progeny: fbf-1 loss-of-function background, failure to initiate oogenesis, ref 41 (Wang, et al. 2016); for germline phenotype: animals expressing mutant FBF-2, unpublished, ref personal communication, Kimble lab. From the text: Our previous structural and biochemical studies relied on FBF-2^164–575, a fragment with the RBD that lacks its intrinsically disordered C-terminal tail but retains its in vivo RNA-binding specificity (Fig. 1a)[17],[18],[36],[39],[40]. […] A worm strain that expresses truncated FBF-2 lacking the C-terminal 26 residues (607-632) was generated in an fbf-1 loss-of-function background. Approximately 11% of the mutant progeny were sterile due to failure to initiate oogenesis, indicating a germline defect. In contrast, worms expressing full-l ... || In the PUF hub, FBF-1 and FBF-2 play a more prominent role than PUF-3 and PUF-11[55]. FBF-1 and FBF-2 amino acid sequences are 91% identical and have largely overlapping functions. […] When the CT of FBF-1 is replaced with the FBF-2 CT, the chimeric protein produces a progenitor region that m ... || page 6: Reviewer #2 (Remarks to the Author): This manuscript uses structural and biochemical approaches to understand how partner proteins and intrinsically disordered regions (IDRs) impact RNA binding of FBF-2. The crystal structure of FBF-2 CT is novel and the proposed role of the CT in autoinhibition by intramolecular interaction with RBD is interesting. However, why this autoinhibition would be needed in vivo is less clear, especially in regard to the interaction with partner proteins. While the authors also mention this shortcoming, some attempt to address the biological consequences of t ...

The nature of series [2]: Melting temperature of FBF-2 proteins. The series is classed as physicochemical. How it is done:
Mutants of FBF-2 RBD + CT: Y479A (5′-[…]), L610A (5′-[…]), and Loop6A (E592A, D594A, E597A, E599A, E604A, E605A; 5′-[…]) were generated by site-directed mutagenesis with the primers indicated. Plasmid sequences were verified by DNA sequencing (Azenta Life Sciences). Protein variants were expressed and purified like wild type proteins. Melting temperatures of wild type and mutant proteins were assessed by differential scanning […]. Reaction mixtures (total volume of 20 μl) contained ~0.3 mg/ml FBF-2 proteins and Sypro Orange dye (1:1000 dilution) (Sigma). Fluorescent intensity was collected from 25 °C to 95 °C (3 °C increment/min) with a real time PCR instrument (Applied Biosystems™ QuantStudio 7 Flex System) using excitation and emission wavelengths of 470 nm and 586 nm, respectively. Protein Thermal Shift^TM software (Applied Biosystems, version 1.4) was used to analyze protein melting curves and calculate melting temperatures (Tm).

For series [3], the target named is gld-1 FBEa RNA. The experiment in a line: Electrophoretic mobility shift assay (EMSA), RNA binding. Details: species or system C. elegans. Here is the method: A 3′-Cy5-labeled synthetic RNA was ordered from IDT (gld-1 FBEa, 5′-[…]-3′). The FBF-2 proteins were serially diluted 2-fold from the highest concentration of 10 µM in the buffer used for gel filtration (20 mM HEPES pH 7.4, 150 mM NaCl, and 0.5 mM TCEP). 10 µl of the serially diluted protein samples were mixed with 10 µl RNA (10 nM) in a 2× buffer of 10 mM HEPES pH 7.4, 0.01% (v/v) Tween 20, 0.1 mg/ml BSA, 0.1 mg/ml yeast tRNA, and 2 mM DTT. For experiments in the presence of LST-1, LST-1 proteins at constant concentration were preincubated with FBF-2 at 4 °C for 2 h. The LST-1 concentrations were chosen based on their Kd’s for interaction with FBF-2. The final FBF-2 concentrations ranged from 5000 nM to 0.6 nM, and the LST-1 A or B concentrations were constant at 150 μM or 50 μM, respectively. The protein-RNA mixtures were incubated at 4 °C overnight. The samples were resolved on 10% TBE polyacrylamide gels run at constant voltage (100 V) with 1× TBE buffer at room temperature for 35 min. The gels were scanned and visualized with a Typhoon FLA 9500 imager using the Cy5 channel (excitation wavelength 635 nm). Band intensities were quantified with ImageQuant 5.2 (Cytiva). The data were fit with GraphPad Prism (version 9.2.0) using nonlinear regression with a one-site specific binding model. Mean Kd’s and standard error of the mean (SEM) from three or more technical replicates are reported (Supplementary Table 4). Full scan images for the replicates shown in the main figures and gel images for all replicates are included in a source data file.

The target in series [4] is gld-1 FBEa RNA. The experiment in a line: Surface plasmon resonance, RNA-binding kinetics. Details: species or system C. elegans. Here is the method: Kinetics of FBF-2 binding to the gld-1 FBEa RNA were measured using a 2-channel OpenSPR instrument (Nicoya). A 3′-biotin-labeled synthetic RNA was ordered from Horizon Discovery (gld-1 FBEa, 5′-AUCAUGUGCCAUACA-biotin-3′). The 3′-biotinylated RNA was immobilized on streptavidin-treated biotin sensor chips (Nicoya). All experiments were performed at 20 °C with a buffer of 20 mM HEPES, pH 7.4, 150 mM NaCl, and 2 mM DTT. SPR data were collected using OpenSPR (Nicoya, version 4.3). FBF-2 proteins were injected with a flow rate of 20 µl/min. Data were obtained at five different protein concentrations (25, 50, 100, 200, and 400 nM for wild type RBD + CT; 12.5, 25, 50, 100, and 200 nM for RBD + CT mutants and wild type RBD). Sensor chips were regenerated using 0.05% or 0.1% (v/v) SDS. For each experiment, five binding curves were simultaneously fit using a 1:1 binding model with the TraceDrawer software (Ridgeview Instruments, version 1.9.1). Mean values and standard deviation were calculated from two technical replicates. Despite our efforts, the fit of the binding curves for the association phase of FBF-2 RBD and FBF-2 RBD + CT mutants is poorer than the fit for FBF-2 RBD + CT WT. The appearance of the curves is consistent with the derived kon and koff values, and importantly, the curve fit for the dissociation phase is better.

The mark [5] stands for this setting: mean ± SD, two technical replicates, 20 °C, pH 7.4, 1:1 model.

Numbering of substitutions follows the chain as printed. In names and notes the source's numbering stands. Several values for one entry are separate records, joined by “and”; a condition that tells them apart may be missing. Equal values may be shown once. Entries after “also recorded” stand apart in the source; their conditions may differ. Read-outs that look alike come from different tables or passages of the source.

As for LST-1 B LST-1 B (from UniProt P91820), in series [1], the dissociation constant (Kd) is 50 nM.

Take LST-1 A LST-1 A (from UniProt P91820): the equilibrium dissociation constant (Kd) in series [1] is 2100 nM.

B1: truncated FBF-2: FBF-2 lacking the C-terminal 26 residues (607-632), expressed in worms (protein, UniProt Q09312 1-606, looked up, fragment)
chain: MDQSKMRRTNQFRKTSQKPPSTGIDSYPTPAQSPMAQHETPMWDFNSLNPYFSMLNMNDGINYARHQQNHIVTSRPPTPLTDLMSLRSFQSFPNVFMPVSRSRTSSFIQSDTDSSRLESDDFSQNVRCFSADIDRSKSYGSSKHYHLKYSRPALSRNSRSFTRSNNVLPTWSLDSNGEMRSRLSLSEVLDSGDLMKFAVDKTGCQFLEKAVKGSLTSYQKFQLFEQVIGRKDDFLKLSTNIFGNYLVQSVIGISLATNDDGYTKRQEKLKNFISSQMTDMCLDKFACRVIQSSLQNMDLSLACKLVQALPRDARLIAICVDQNANHVIQKVVAVIPLKNWEFIVDFVATPEHLRQICSDKYGCRVVQTIIEKLTADSMNVDLTSAAQNLRERALQRLMTSVTNRCQELATNEYANYIIQHIVSNDDLAVYRECIIEKCLMRNLLSLSQEKFASHVVEKAFLHAPLELLAEMMDEIFDGYIPHPDTGKDALDIMMFHQFGNYVVQCMLTICCDAVSGRRQTKEGGYDHAISFQDWLKKLHSRVTKERHRLSRFSSGKKMIETLANLRSTHPIYELQSSGHDSFKTDYFSTASEHDGPELEKNGIEEG
B1: in the series with C. elegans, the sterile progeny result is recorded as “Approximately 11%”.

B2: FBF-2 RBD + CT Loop6A: FBF-2 RBD + CT with E592A, D594A, E597A, E599A, E604A, E605A (protein)
chain: SNNVLPTWSLDSNGEMRSRLSLSEVLDSGDLMKFAVDKTGCQFLEKAVKGSLTSYQKFQLFEQVIGRKDDFLKLSTNIFGNYLVQSVIGISLATNDDGYTKRQEKLKNFISSQMTDMCLDKFACRVIQSSLQNMDLSLACKLVQALPRDARLIAICVDQNANHVIQKVVAVIPLKNWEFIVDFVATPEHLRQICSDKYGCRVVQTIIEKLTADSMNVDLTSAAQNLRERALQRLMTSVTNRCQELATNEYANYIIQHIVSNDDLAVYRECIIEKCLMRNLLSLSQEKFASHVVEKAFLHAPLELLAEMMDEIFDGYIPHPDTGKDALDIMMFHQFGNYVVQCMLTICCDAVSGRRQTKEGGYDHAISFQDWLKKLHSRVTKERHRLSRFSSGKKMIETLANLRSTHPIYELQSSGHDSFKTDYFSTASAHAGPALAKNGIAAGSLMLEPRSNKSSVSVKFSSSGSHGDD
modifications: left off: His6-SUMO, N-terminal, cleaved
notes: FBF-2 RBD + CT with E592A, D594A, E597A, E599A, E604A, E605A
Turning to B2, the thermal stability entry in series [2] (in words, vs RBD alone or vs RBD + CT) is “only modestly decreased the thermal stability”. Further, the Tm in series [2] (mean ± SD, three technical replicates, ~0.3 mg/ml protein, Sypro Orange, 25 to 95 °C, fluorescence) is 37.58 ± 0.05 °C; in series [2] (replicate 1), 37.54 °C; in series [2] (replicate 2), 37.68 °C; in series [2] (replicate 3), 37.54 °C. Also, the dissociation constant (Kd) is 142 nM and 175 nM and 180 nM at gld-1 FBEa RNA [3]; 101 nM at gld-1 FBEa RNA [3] (no LST-1, mean ± SEM of independent technical replicates (n = 3-5), 4 °C overnight, pH 7.4, Cy5-RNA 5′-AUCAUGUGCCAUAC-3′); 122 nM at gld-1 FBEa RNA [3] (no LST-1, replicate 1); 100 nM on gld-1 FBEa RNA [3] (no LST-1, replicate 2); 81 nM on gld-1 FBEa RNA [3] (no LST-1, replicate 3); 166 ± 21 nM at gld-1 FBEa RNA [3] (pH 7.4). The molecule also registered a Kd at gld-1 FBEa RNA [4] (derived from on/off rates, mean ± SD, two technical replicates) of 9.5 ± 4.2 nM. The koff was 0.94 ± 0.05 x10^-3 s^-1 in the series with gld-1 FBEa RNA [4] (setting [5]); 0.00097 s⁻¹ with gld-1 FBEa RNA [4] (replicate 1, read-out: koff); 0.00091 s⁻¹ with gld-1 FBEa RNA [4] (replicate 2, read-out: koff). Also, the results for the kon in the series with gld-1 FBEa RNA [4] (setting [5]), in the series with gld-1 FBEa RNA [4] (replicate 1) and in the series with gld-1 FBEa RNA [4] (replicate 2) were 10.9 ± 4.3 x10^4 M^-1 s^-1, 78000 M⁻¹ s⁻¹ and 139000 M⁻¹ s⁻¹, respectively.

B3: full-length FBF-2: worms expressing full-length FBF-2 in an fbf-1 loss-of-function background (protein, UniProt Q09312 1-632, looked up)
chain: MDQSKMRRTNQFRKTSQKPPSTGIDSYPTPAQSPMAQHETPMWDFNSLNPYFSMLNMNDGINYARHQQNHIVTSRPPTPLTDLMSLRSFQSFPNVFMPVSRSRTSSFIQSDTDSSRLESDDFSQNVRCFSADIDRSKSYGSSKHYHLKYSRPALSRNSRSFTRSNNVLPTWSLDSNGEMRSRLSLSEVLDSGDLMKFAVDKTGCQFLEKAVKGSLTSYQKFQLFEQVIGRKDDFLKLSTNIFGNYLVQSVIGISLATNDDGYTKRQEKLKNFISSQMTDMCLDKFACRVIQSSLQNMDLSLACKLVQALPRDARLIAICVDQNANHVIQKVVAVIPLKNWEFIVDFVATPEHLRQICSDKYGCRVVQTIIEKLTADSMNVDLTSAAQNLRERALQRLMTSVTNRCQELATNEYANYIIQHIVSNDDLAVYRECIIEKCLMRNLLSLSQEKFASHVVEKAFLHAPLELLAEMMDEIFDGYIPHPDTGKDALDIMMFHQFGNYVVQCMLTICCDAVSGRRQTKEGGYDHAISFQDWLKKLHSRVTKERHRLSRFSSGKKMIETLANLRSTHPIYELQSSGHDSFKTDYFSTASEHDGPELEKNGIEEGSLMLEPRSNKSSVSVKFSSSGSHGDD
modifications: full-length
notes: worms expressing full-length FBF-2 in an fbf-1 loss-of-function background
Turning to B3, the “germline progenitor region length” value with C. elegans (expressed as sole FBF protein, vs FBF-1) is “shorter germline progenitor regions than FBF-1”. The sterile progeny in the series with C. elegans is 0%.

B4: FBF-2 Y479A: FBF-2 Y479A expressed in animals (Kimble lab, unpublished) (protein, UniProt Q09312 1-632, looked up, variant Y479A)
Fem-3 mRNA-binding factor 2: B3 chain with Y479A
For B4, the germline phenotype entry with C. elegans is “no defects were detected in germline stem cell self-; also recorded: defect in the sperm-to-oocyte switch”.

B5: FBF-2 L610A: FBF-2 L610A; attempts to generate animals were unsuccessful (protein, UniProt Q09312 1-632, looked up, variant L610A)
Fem-3 mRNA-binding factor 2: B3 chain with L610A
Consider B5, for which the germline phenotype entry in the series on C. elegans is “dominant sterile”.
